According to the supplement of paper PMC11246515:
± gives the standard deviation of the averaged measurements.

Assay: total protein half-life in vivo (active degradation + dilution); higher = more stable protein
[1] = E. coli NCM3722 delta-clpP delta-lon delta-hslV, growth: N-lim chemostat, doubling time 6 h
[2] = E. coli NCM3722 delta-clpP, growth: N-lim chemostat, doubling time 6 h
[3] = E. coli NCM3722 delta-hslV, growth: N-lim chemostat, doubling time 6 h
[4] = E. coli NCM3722 delta-lon, growth: N-lim chemostat, doubling time 6 h
[5] = E. coli NCM3722 delta-smpB, growth: N-lim chemostat, doubling time 6 h
[6] = wild type E. coli NCM3722, growth: C-lim chemostat, doubling time 3 h
[7] = wild type E. coli NCM3722, growth: C-lim chemostat, doubling time 6 h
[8] = wild type E. coli NCM3722, growth: C-lim chemostat, doubling time 12 h
[9] = wild type E. coli NCM3722, growth: N-lim chemostat, doubling time 6 h
[10] = wild type E. coli NCM3722, growth: N-lim chemostat, doubling time 12 h
[11] = wild type E. coli NCM3722, growth: P-lim chemostat, doubling time 6 h
[12] = wild type E. coli NCM3722, growth: P-lim chemostat, doubling time 12 h

Sequence: MNELDGIKQFTTVVADSGDIESIRHYHPQDATTNPSLLLKAAGLSQYEHLIDDAIAWGKKNGKTQEQQVVAACDKLAVNFGAEILKIVPGRVSTEVDARLSFDKEKSIEKARHLVDLYQQQGVEKSRILIKLASTWEGIRAAEELEKEGINCNLTLLFSFAQARACAEAGVFLISPFVGRIYDWYQARKPMDPYVVEEDPGVKSVRNIYDYYKQHHYETIVMGASFRRTEQILALTGCDRLTIAPNLLKELQEKVSPVVRKLIPPSQTFPRPAPMSEAEFRWEHNQDAMAVEKLSEGIRLFAVDQRKLEDLLAAKL [P0A867]
- total protein half-life in vivo [1]: 5.487 ± 0.013 h
- total protein half-life in vivo [2]: 5.51 ± 0.43 h
- total protein half-life in vivo [3]: 5.35 ± 0.25 h
- total protein half-life in vivo [4]: 5.76 ± 0.63 h
- total protein half-life in vivo [5]: 5.19 ± 0.4 h
- total protein half-life in vivo [6]: 3.12 ± 0.12 h
- total protein half-life in vivo [7]: 5.95 ± 0.33 h
- total protein half-life in vivo [8]: 11.7 ± 0.016 h
- total protein half-life in vivo [9]: 5.19 ± 0.21 h
- total protein half-life in vivo [10]: 9.85 ± 1.3 h
- total protein half-life in vivo [11]: 5.9 ± 0.16 h
- total protein half-life in vivo [12]: 12.8 ± 0.16 h

Sequence: MNEVVNSGVMNIASLVVSVVVLLIGLILWFFINRASSRTNEQIELLEALLDQQKRQNALLRRLCEANEPEKADKKTVESQKSVEDEDIIRLVAER
- total protein half-life in vivo [1]: 3.97 ± 0.73 h
- total protein half-life in vivo [2]: 6.38 h
- total protein half-life in vivo [4]: 1.45 h
- total protein half-life in vivo [5]: 1.31 h
- total protein half-life in vivo [6]: 2.6 h
- total protein half-life in vivo [9]: 1.78 h
- total protein half-life in vivo [11]: 2.17 h
- total protein half-life in vivo [12]: 3.4 ± 1.1 h

Sequence: MNFQQLKIIREAARQDYNLTEVANMLFTSQSGVSRHIRELEDELGIEIFVRRGKRLLGMTEPGKALLVIAERILNEASNVRRLADLFTNDTSGVLTIATTHTQARYSLPEVIKAFRELFPEVRLELIQGTPQEIATLLQNGEADIGIASERLSNDPQLVAFPWFRWHHSLLVPHDHPLTQISPLTLESIAKWPLITYRQGITGRSRIDDAFARKGLLADIVLSAQDSDVIKTYVALGLGIGLVAEQSSGEQEEENLIRLDTRHLFDANTVWLGLKRGQLQRNYVWRFLELCNAGLSVEDIKRQVMESSEEEIDYQI
- total protein half-life in vivo [1]: 6.2 ± 1.1 h
- total protein half-life in vivo [2]: 2.47 ± 0.054 h
- total protein half-life in vivo [3]: 0.454 h
- total protein half-life in vivo [4]: 0.652 h
- total protein half-life in vivo [5]: 0.654 h
- total protein half-life in vivo [6]: 1.18 ± 0.11 h
- total protein half-life in vivo [7]: 1.156 ± 0.01 h
- total protein half-life in vivo [8]: 1.86 h
- total protein half-life in vivo [9]: 1.04 ± 0.049 h
- total protein half-life in vivo [10]: 1.02 h
- total protein half-life in vivo [11]: 2.33 ± 0.71 h
- total protein half-life in vivo [12]: 4.48 ± 0.47 h

Sequence: MNGELIWVLSLLAVAIVLFATGRVRMDAVALFVIVAFALSGTLTVPEVFSGFSDPNVVLIAALFIIGDGLVRTGVATVMGTWLVKVAGNSEIKMLVLLMLTVAGLGAFMSSTGVVAIFIPVVLSVAMRMQTSPSRLMMPLSFAGLISGMMTLVATPPNLVVNSELLREGYHGFSFFSVTPIGLVVLVLGILYMLVMRFMLKGDTQTPQREGWTRRTFRDLIREYRLTGRARRLAIRPGSPMIGQRLDDLKLRERYGANVIGVERWRRFRRVIVNVNGVSEFRARDVLLIDMSAADVDLRQFCSEQLLEPMVLRGEYFSDQALDVGMAEISLIPESELIGKSVREIGFRTRYGLNVVGLKRNGVALEGSLADEPLLLGDIILVVGNWKLIGMLAKQGRDFVALNLPEEVSEASPAHSQAPHAIFCLVLMVALMLTDEIPNPVAAIIACLLMGKFRCIDAESAYKSIHWPSIILIVGMMPFAVALQKTGGVALAVKGLMDIGGGYGPHMMLGCLFVLSAVIGLFISNTATAVLMAPIALAAAKTMGVSPYPFAMVVAMAASAAFMTPVSSPVNTLVLGPGNYSFSDFVKLGVPFTIIVMAVCVVMIPMLFPF [P0AFU2]
- total protein half-life in vivo [3]: 6.68 ± 0.32 h
- total protein half-life in vivo [4]: 6.39 ± 0.64 h
- total protein half-life in vivo [5]: 6.29 ± 0.45 h
- total protein half-life in vivo [6]: > 4 h
- total protein half-life in vivo [7]: 5.46 h
- total protein half-life in vivo [9]: 5.65 ± 1.7 h
- total protein half-life in vivo [10]: 12.4 ± 3.2 h
- total protein half-life in vivo [11]: > 8 h
- total protein half-life in vivo [12]: 12.8 ± 1.7 h

Sequence: MNGLLRIRQRYQGLAQSDKKLADYLLLQPDTARHLSSQQLANEAGVSQSSVVKFAQKLGYKGFPALKLALSEALASQPESPSVPIHNQIRGDDPLRLVGEKLIKENTAAMYATLNVNSEEKLHECVTMLRSARRIILTGIGASGLVAQNFAWKLMKIGFNAAAVRDMHALLATVQASSPDDLLLAISYTGVRRELNLAADEMLRVGGKVLAITGFTPNALQQRASHCLYTIAEEQATNSASISACHAQGMLTDLLFIALIQQDLELAPERIRHSEALVKKLV
- total protein half-life in vivo [1]: 5.79 ± 0.53 h
- total protein half-life in vivo [2]: 4.3186 ± 0.00083 h
- total protein half-life in vivo [3]: 2.83 ± 0.031 h
- total protein half-life in vivo [4]: 3.72 ± 0.33 h
- total protein half-life in vivo [5]: 3.5 ± 0.69 h
- total protein half-life in vivo [6]: 2.44 ± 0.087 h
- total protein half-life in vivo [7]: 4.31 ± 0.2 h
- total protein half-life in vivo [8]: 5.65 ± 1.1 h
- total protein half-life in vivo [9]: 2.8 ± 0.11 h
- total protein half-life in vivo [10]: 4.19 ± 0.29 h
- total protein half-life in vivo [11]: 3.73 ± 0.18 h
- total protein half-life in vivo [12]: 7.58 ± 1.8 h

Sequence: MNIELLQQLCEASAVSGDEQEVRDILINTLEPCVNEITFDGLGSFVARKGNKGPKVAVVGHMDEVGFMVTHIDESGFLRFTTIGGWWNQSMLNHRVTIRTHKGVKIPGVIGSVAPHALTEKQKQQPLSFDEMFIDIGANSREEVEKRGVEIGNFISPEANFACWGEDKVVGKALDNRIGCAMMAELLQTVNNPEITLYGVGSVEEEVGLRGAQTSAEHIKPDVVIVLDTAVAGDVPGIDNIKYPLKLGQGPGLMLFDKRYFPNQKLVAALKSCAAHNDLPLQFSTMKTGATDGGRYNVMGGGRPVVALCLPTRYLHANSGMISKADYEALLTLIRGFLTTLTAEKVNAFSQFRQVD
- total protein half-life in vivo [4]: 3.4 h
- total protein half-life in vivo [5]: 3.85 ± 0.0073 h
- total protein half-life in vivo [6]: 2.53 h
- total protein half-life in vivo [9]: 3.72 h
- total protein half-life in vivo [11]: 4.06 h
- total protein half-life in vivo [12]: 9.711 ± 0.074 h

Sequence: MNIFDHYRQRYEAAKDEEFTLQEFLTTCRQDRSAYANAAERLLMAIGEPVMVDTAQEPRLSRLFSNRVIARYPAFEEFYGMEDAIEQIVSYLKHAAQGLEEKKQILYLLGPVGGGKSSLAERLKSLMQLVPIYVLSANGERSPVNDHPFCLFNPQEDAQILEKEYGIPRRYLGTIMSPWAAKRLHEFGGDITKFRVVKVWPSILQQIAIAKTEPGDENNQDISALVGKVDIRKLEHYAQNDPDAYGYSGALCRANQGIMEFVEMFKAPIKVLHPLLTATQEGNYNGTEGISALPFNGIILAHSNESEWVTFRNNKNNEAFLDRVYIVKVPYCLRISEEIKIYEKLLNHSELTHAPCAPGTLETLSRFSILSRLKEPENSSIYSKMRVYDGESLKDTDPKAKSYQEYRDYAGVDEGMNGLSTRFAFKILSRVFNFDHVEVAANPVHLFYVLEQQIEREQFPQEQAERYLEFLKGYLIPKYAEFIGKEIQTAYLESYSEYGQNIFDRYVTYADFWIQDQEYRDPDTGQLFDRESLNAELEKIEKPAGISNPKDFRNEIVNFVLRARANNSGRNPNWTSYEKLRTVIEKKMFSNTEELLPVISFNAKTSTDEQKKHDDFVDRMMEKGYTRKQVRLLCEWYLRVRKSS [P0ACY3]
- total protein half-life in vivo [1]: 3.5 ± 0.94 h
- total protein half-life in vivo [2]: 2.691 ± 0.0021 h
- total protein half-life in vivo [3]: 2.49 ± 0.037 h
- total protein half-life in vivo [4]: 2.38 ± 0.24 h
- total protein half-life in vivo [5]: 2.24 ± 0.06 h
- total protein half-life in vivo [6]: 2.76 ± 0.21 h
- total protein half-life in vivo [7]: 3.41 ± 0.25 h
- total protein half-life in vivo [8]: 4.77 ± 0.46 h
- total protein half-life in vivo [9]: 2.48 ± 0.11 h
- total protein half-life in vivo [10]: 3.09 ± 0.1 h
- total protein half-life in vivo [11]: 4.703 ± 0.016 h
- total protein half-life in vivo [12]: 7.66 ± 0.77 h
